From article PMC4329827 (Meta Gene, 2015) come the findings set out here.

Usually Kd stands for a measure of binding affinity in units of concentration. The low end stands for higher affinity, the high end for lower affinity.

In the assay the target is T1, MOCS2B wild-type, large subunit of MPT synthase (human, UniProt O96007 1-188).
T1 sequence (looked up): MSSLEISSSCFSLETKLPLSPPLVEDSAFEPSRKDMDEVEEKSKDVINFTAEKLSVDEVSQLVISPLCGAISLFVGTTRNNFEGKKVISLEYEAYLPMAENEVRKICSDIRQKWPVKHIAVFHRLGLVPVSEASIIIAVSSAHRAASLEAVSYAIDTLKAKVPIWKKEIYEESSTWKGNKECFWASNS
Description: ITC. In general terms: ITC needs no label: the signal is the heat of the interaction.

B1: MOCS2A, small subunit of MPT synthase (activated, thiocarboxylated) (natural protein, human, UniProt O96033 1-88, looked up)
chain: MVPLCQVEVLYFAKSAEITGVRSETISVPQEIKALQLWKEIETRHPGLADVRNQIIFAVRQEYVELGDQLLVLQPGDEIAVIPPISGG
modifications: thiocarboxylated C-terminal tail
In turn, B1 gave a Kd of 360 ± 47 nM.
